From paper PMC5737734 (Journal of molecular biology, 2011)

How the values were obtained:
[1] = molecular target: DnaK, wild type, with a C-terminal hexahistidine tag (E. coli, UniProt P0A6Y8 1-638); assay: SPR
DnaK V389A = DnaK V389A (E. coli, UniProt P0A6Y8 1-638, V389A); assay: SPR

B1: DnaJ with the biotin carboxyl carrier protein (BCCP) fused at the C-terminus (natural protein, E. coli, UniProt P08622 1-376, looked up)
chain: MAKQDYYEILGVSKTAEEREIRKAYKRLAMKYHPDRNQGDKEAEAKFKEIKEAYEVLTDSQKRAAYDQYGHAAFEQGGMGGGGFGGGADFSDIFGDVFGDIFGGGRGRQRAARGADLRYNMELTLEEAVRGVTKEIRIPTLEECDVCHGSGAKPGTQPQTCPTCHGSGQVQMRQGFFAVQQTCPHCQGRGTLIKDPCNKCHGHGRVERSKTLSVKIPAGVDTGDRIRLAGEGEAGEHGAPAGDLYVQVQVKQHPIFEREGNNLYCEVPINFAMAALGGEIEVPTLDGRVKLKVPGETQTGKLFRMRGKGVKSVRGGAQGDLLCRVVVETPVGLNERQKQLLQELQESFGGPTGEHNSPRSKSFFDGVKKFFDDLTR
- binding result [1]: binds
- binding result (DnaK V389A): binds
